First the molecules themselves.
B1: unnamed (parent)
chain 1: EATVYLPPVPVSKVVSTDEYVSRTSIYYYAGSSRLLAVGNPYFSIKSPNNNKKVLVPKVSGLQYRVFRVRLPDPNKFGFPDTSFYNPDTQRLVWACVGLEIGRGQPLGVGVSGHPYLNKFDDTETSNRYPAQPGSDNRECLSMDYKQTQLCLIGCKPPTGEHWGKGVACNNNAAATDCPPLELFNSIIEDGDMVDTGFGCMDFGTLQANKSDVPIDICNSTCKYPDYLKMASEPYGDSLFFFLRREQMFVRHFFNRAGKLGEAVPDDLYIKGSGNTAVIQSSAFFPTPSGSIVTSESQLFNKPYWLQRAQGHNNGICWGNQLFVTVVDTTRSTNMTLCTEVTKEGTYKNDNFKEYVRHVEEYDLQFVFQLCKITLTAEIMTYIHTMDSNILEDWQFGLTPPPSASLQDTYRFVTSQAITCQKTAPPKEKEDPLNKYTFWEVNLKEKFSADLDQFPLGRKFLLQSGLKAKPRLKRSAPTTRAPSTKRKKVKK
chain 2: EVQLQQSGAELVRPGALVKLSCKASGFNIKDYYMHWVKQRPEQGLEWIGWIDPENGKTIYDPRFRGKASITADTSSNTAYLQLSSLTSEDAAVYYCATSNYRYDRSFDYWGQGTTLTVSAKTTPPSVYPLAPGCGDTTGSSVTSGCLVKGYFPEPVTVTWNSGSLSSSVHTFPALLQSGLYTMSSSVTVPSSTWPSQTVTCSVAHPASSTTVDKKL
chain 3: DIQMTQSPSSLFASLGGKVTITCKASQDINKYIAWFQHKPGKGPRLLIHYTFTLQPGIPSRFSGSGSGRDYSFSISNLEPEDIATYYCLQYHNLYTFGGGTKLEIKRADAAPTVSIFPPSSEQLTSGGASVVCFLNNFYPKDINVKWKIDGSERQNGVLNSWTDQDSKDSTYSMSSTLTLTKDEYERHNSYTCEATHKTSTSPIVKSFNRNEC
B2: unnamed (parent)
chain 1: B1 chain 2
chain 2: B1 chain 3
chain 3: B1 chain 1

One assay covers variants of B1. Description: SPR (Biacore). Conditions: with partner chain of the complex shown; read off a plot.
For the variant chain 1 S135A, the Kd was 8.2 -log10, M.
On the same count and under the same terms, the result for chain 1 Q132A reads 7.9 -log10, M; that for chain 1 N275A, 6.9 -log10, M; that for chain 1 R128A, 6 -log10, M.
The same measure, in the same setting: the value for chain 1 N137A was 8.2 -log10, M.

The next assay covers variants of B2. Description: indirect ELISA. Conditions: with partner chain of the complex shown.
For chain 3 D121A, the EC50 was determined as 0.0784 µg/mL.
As for chain 3 S135A, the EC50 is 0.0132 µg/mL.
As to chain 3 N275A, the EC50 came out at 0.0455 µg/mL.
As for chain 3 N137A, the half-maximal effective concentration (EC50) amounted to 0.011 µg/mL.
Still for that read-out and setting: the value for chain 3 Q132A was 0.0152 µg/mL.

Values taken from PMC5615192 (mBio, 2017).
